The text below walks through data of patent US20130261012A1 (published 2013).

Some results are limits rather than exact numbers.

The assay addresses S3. Description: apparent affinity of recombinant chimeric mAb, cell binding.

B1: FZD10 (receptor)
chain: ISSMDMERPGDGKCQPIEIPMCKDIGYNMTRMPNLMGHENQREAAIQLHEFAPLVEYGCHGHLRFFLCSLYAPMCTEQVSTPIPACRVMCEQARLKCSPIMEQFNFKWPDSLDCRKLPNKNDPNYLCMEAPNNGSDEPTRGSGLFPPLFRPQRPHSAQEHPLKDGGPGRGGCDNPGKFHHVEKSASCAPLCTPGVDVYWSREDKRFAVVWLAIWAVLCFFSSAFTVLTFLIDPARFRYPERPIIFLSMCYCVYSVGYLIRLFAGAESIACDRDSGQLYVIQEGLESTGCTLVFLVLYYFGMASSLWWVVLTLTWFLAAGKKWGHEAIEANSSYFHLAAWAIPAVKTILILVMRRVAGDELTGVCYVGSMDVNALTGFVLIPLACYLVIGTSFILSGFVALFHIRRVMKTGGENTDKLEKLMVRIGLFSVLYTVPATCVIACYFYERLNMDYWKILAAQHKCKMNNQTKTLDCLMAASIPAVEIFMVKIFMLLVVGITSGMWIWTSKTLQSWQQVCSRRLKKKSRRKPASVITSGGIYKKAQHPQKTHHGKYEIPAQSPTCV
Turning to B1, the Kd is over 40 nM.
